# Measured values: the RNAGym collection of RNA variant scans (doi:10.1093/nar/gkz1192)
# B1: CPEB3 Ribozyme (parent)
# chain: UAACAGGGGGCCACAGCAGAAGCGUUCACGUCGCAGCCCCUGUCAGAUUCUGGUGAAUCUGCGAAUUCUGCUGUAUAUCUC
# Variants of: B1
# Test: self-cleavage, relative activity (ratio to wild type); higher = more cleavage; in vitro, sequencing
# Summary of the method: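 For each CPEB3 ribozyme variant, relative activity is its cleaved/total read fraction divided by the unmutated ribozyme's. Barcoded error-prone PCR libraries were transcribed by T7 RNA polymerase (5 hours, 37°C) and held in DNase I for 15 min before an EDTA stop, with cleavage occurring throughout. Template-switching reverse transcription and Illumina sequencing were used to read the RNAs. A 5-read minimum applied, and results are the mean of three batches.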
row,Variant,self-cleavage
1,C12A U80C,1.23
2,C12U U60G,0.46
3,C12U U60C,0.95
4,C12U U60A,1.04
5,A13G G30U,0.18
6,A13G G30A,0.44
7,A13G G30C,0.16
8,A13G G73A,1.27
9,A13G G73C,1.12
10,A13G C38G,0.28
11,A13G C38U,0.83
12,A13G C38A,0.13
13,C12U A77G,1.19
14,C12U A77C,1.03
15,A13C A57G,1.04
16,A13C A57U,0.28
17,C12G A13G,0.71
18,C12G A13C,0.72
19,C12G A13U,1.14
20,C12U G63C,1.26
21,C12U G63A,1.39
22,A13G C29U,0.33
23,A13G C29G,0.11
24,A13G C29A,0.3

row,Variant,self-cleavage
1,A13G G24A,0.27
2,C12U U58A,0.9
3,C12U U58C,1.03
4,A13G A47G,0.86
5,A13G A47C,0.57
6,A13G A47U,0.38
7,C12U A64G,1.41
8,C12U A64U,0.83
9,C12U A57G,1.26
10,C12U C23U,0.52
11,C12U C71U,0.58
12,A13C U58C,0.45
13,C12U U26C,0.84
14,C12U U26A,1.19
15,A13G C81A,1.23
16,C12G G30A,0.29
17,A13G A20C,0.27
18,A13G A20U,0.28
19,A13G A20G,0.6
20,C12G C40A,0.11
21,A13C C14G,0.56
22,C12U U48C,1.18
23,C12U U48G,0.94
24,C12U A21U,1

row,Variant,self-cleavage
1,C12U A21G,0.86
2,C12U A18G,0.95
3,C12U A18U,0.62
4,A13C U76C,0.75
5,A13C U76A,1.18
6,C12U C29U,0.96
7,C12U C39U,1.26
8,C12G U43C,0.38
9,A13G A45C,0.34
10,A13G A45U,0.4
11,A13G A45G,0.67
12,A13C A20G,0.72
13,A13G G70C,0.45
14,A13G G70A,0.26
15,C12G U49C,0.16
16,C12U G53A,1.18
17,C12G C17G,0.27
18,C12G U41C,1.09
19,C12G U41G,0.14
20,C12U U80C,1.23
21,C12U U80A,1.26
22,C12U U66C,0.71
23,A13G C50A,0.76
24,A13G C50U,0.91

row,Variant,self-cleavage
1,A13G C50G,0.81
2,A13G A56G,0.73
3,A13G A56U,0.42
4,A13C A47C,0.34
5,A13C A47G,1.05
6,C12U U25C,0.38
7,C12U U25G,0.7
8,C12A U67C,0.33
9,C12A U67A,0.69
10,A13C U26C,0.51
11,A13C U26A,0.61
12,A13G G33U,0.24
13,A13G G33A,0.21
14,A13G G33C,0.17
15,A13G C71U,0.39
16,A13G C71A,0.25
17,A13G C71G,0.12
18,A13C A77G,1.12
19,C12U C81U,1.22
20,C12G A64U,0.13
21,A13C,0.96
22,A13G,0.94
23,A13G A35C,0.56
24,A13G A35U,0.48

row,Variant,self-cleavage
1,A13G A35G,0.92
2,A13C U49C,0.42
3,C12A U72C,1.19
4,A13G G22A,0.19
5,A13G G22C,0.12
6,A13C G63U,0.97
7,C12U U74A,1.3
8,C12U U74G,1.25
9,A13G C34U,0.32
10,A13G C34G,0.17
11,C12G U67C,0.08
12,C12G U67A,0.23
13,C12G U67G,0.12
14,A13C A15G,1.07
15,A13C A15U,1
16,A13C C44A,0.42
17,A13C C44U,0.59
18,C12U A28G,0.89
19,C12U A28C,0.94
20,C12U A28U,1.12
21,A13C U51C,1.11
22,A13C U51A,1.01
23,A13C U51G,0.88
24,A13C A75G,1.12

row,Variant,self-cleavage
1,A13C A75U,0.99
2,A13G U26C,0.38
3,A13G U26A,0.85
4,C12G U69A,0.3
5,C12G U69C,0.11
6,C12U C34A,0.68
7,A13G A77U,0.92
8,A13G A77G,0.69
9,A13G A77C,0.62
10,A13G C37U,0.53
11,A13G C37A,0.18
12,C12G U66C,0.24
13,C12U C44A,0.94
14,A13C C32A,0.29
15,C12U G16U,0.75
16,C12U G16C,0.79
17,C12U G24C,0.16
18,C12U U69C,0.96
19,C12U U69A,0.95
20,C12U U69G,1.18
21,A13G C62A,0.18
22,A13G C62U,0.23
23,A13G A15U,0.43
24,A13G A15C,0.81

row,Variant,self-cleavage
1,A13G A15G,0.35
2,A13C G22A,0.19
3,A13G A64U,0.32
4,A13G A64C,0.46
5,A13G A64G,0.76
6,A13G G16A,0.24
7,C12G,0.59
8,C12U,1.25
9,A13C C79U,1.11
10,C12G A45C,0.12
11,A13C U48C,0.68
12,A13G C59G,0.24
13,A13G C59U,0.8
14,A13G C14A,0.88
15,A13G C14U,0.78
16,A13G C68U,0.66
17,A13G G52U,1.14
18,A13G G52A,1.04
19,A13C C50A,0.87
20,C12U C27A,0.46
21,C12G U54C,0.51
22,C12G U78C,0.71
23,C12G A15G,0.1
